Reference: US20030129193A1 (priority 2001, published 2003)

Key:
[1] = tested on: Mouse bEnd.3 endothelial cells; assay: PS induction by H2O2; format: cell-based
Experimental: Mouse bEnd.3 endothelial cells were seeded at an initial density of 50,000 cells/well. Twenty-fours later cells were incubated with increasing concentrations of H2O2 (from 10 μM to 500 μM) for 1 hour at 37° C. or left untreated. At the end of the incubation, cells were washed 3 times with PBS containing 0.2% gelatin and fixed with 0.25% glutaraldehyde. Identical wells were either stained with anti-PS IgM or trypsinized and evaluated for viability by the Trypan Blue exclusion test. For the anti-PS staining, after blocking with 2% gelatin for 10 min., cells were incubated with 2 μg/ml of anti-PS antibody, followed by detection with anti-mouse IgM-HRP conjugate.

[2] = molecular target: recombinant, depyrogenated truncated Tissue Factor (amino acids 1-219), secreted into the periplasm of E. coli from vector pswc7 (human) (UniProt P13726); assay: cell-based or functional assay
[3] = tested on: tissue factor on HUVEC cells; assay: FACS analysis of tissue factor expression; format: cell-based, human; conditions: 6 h at 37°; TNFα 500 U/ml, LPS 10 μg/ml, VEGF 1 nM
Experimental: To analyze tissue factor expression on the surface of endothelial cells, HUVEC cells were incubated with TNFα (500 U/ml), LPS (10 μg/ml) or vascular endothelial growth factor (VEGF, 1 nM) alone or in combination for 6 h at 37°. Cells were then detached and stained for surface expression of human tissue factor with a sheep-anti-human tissue factor antibody (Haemochrom, Essen, Germany) and an appropriate FITC-conjugated secondary antibody. Fluorescent cells were detected on a flow cytometer (Becton Dickinson. San Jose, Calif.).

[4] = tested on: citrated mouse or human plasma; assay: In vitro coagulation assay on A20 cells; format: cell-based; conditions: for concentration at which plasma coagulated in 50 seconds: localized on A20 cells via B21-2/10H10; for reduction of coagulation-inducing activity relative to monomer / tTF219: less active; for coagulation times versus tTF219 and Factor VIIa at the same concentrations: Factor VIIa at 1 nM or greater
factor X = assay: Factor Xa production assay on A20 cells; format: cell-based; conditions: Factors II, VII and IX present
[5] = tested on: HT29 human colorectal carcinoma; assay: Anti-tumor effects and tumor necrosis, HT29; format: in vivo, BALB/c nu/nu mice; conditions: small HT29 tumors, single agents, 24 hours

OO [H2O2]
cells with PS at the cell surface ([1]; concentrations as low as 20 μM): about 50% | cells with PS translocation ([1]; concentrations higher than 100 μM, 1 hour): ~90% | cell viability ([1]; low levels of H2O2 (lower than 100 μM)): 95%

Factor VIIa (Sigma) (enzyme)
Factor Xa generation due to Factor VIIa production on bEnd3 cells; stimulation: 0.5 µg/ml LPS; incubation: tTF-VIIa [2]: 6.25 nkat S2222 | Factor Xa generation due to Factor VIIa production on bEnd3 cells; stimulation: 0.5 µg/ml LPS; tTF-VIIa minus sTF [2]: 3.25 nkat S2222 | Factor Xa generation due to Factor VIIa production on bEnd3 cells; stimulation: TNFα; incubation: tTF-VIIa [2]: 2.93 nkat S2222 | Factor Xa generation due to Factor VIIa production on bEnd3 cells; stimulation: TNFα; tTF-VIIa minus sTF [2]: 1.02 nkat S2222 | Factor Xa generation due to Factor VIIa production on bEnd3 cells; stimulation: medium; incubation: tTF-VIIa [2]: 0.95 nkat S2222 | Factor Xa generation due to Factor VIIa production on bEnd3 cells; stimulation: medium; tTF-VIIa minus sTF [2]: 0.25 nkat S2222 | Factor Xa generation on bEnd3 cells; stimulation: 0.5 µg/ml LPS; incubation: tTF-VIIa [2]: 3.35 nkat S2222 | Factor Xa generation on bEnd3 cells; stimulation: 0.5 µg/ml LPS; tTF-VIIa minus sTF (background subtracted) [2]: 1.35 nkat S2222 | Factor Xa generation on bEnd3 cells; stimulation: 10 µg/ml LPS; incubation: tTF-VIIa [2]: 4.46 nkat S2222 | Factor Xa generation on bEnd3 cells; stimulation: 10 µg/ml LPS; tTF-VIIa minus sTF (background subtracted) [2]: 1.55 nkat S2222 | Factor Xa generation on bEnd3 cells; stimulation: TNFα; incubation: tTF-VIIa [2]: 1.51 nkat S2222 | Factor Xa generation on bEnd3 cells; stimulation: TNFα; tTF-VIIa minus sTF (background subtracted) [2]: 0.84 nkat S2222 | Factor Xa generation on bEnd3 cells; stimulation: medium; incubation: tTF-VIIa [2]: 0.56 nkat S2222 | Factor Xa generation on bEnd3 cells; stimulation: medium; tTF-VIIa minus sTF (background subtracted) [2]: 0.16 nkat S2222

VEGF
tissue factor expression on the surface of HUVEC [3]: upregulated tissue factor expression

B1: H6-tTF219-cys-C′: (His)6 tTF219 with a Cys after amino acid 219 (protein)
chain: HHHHHHAMALVPRGSGTTNTVAAYNLTWKSTNFKTILEWEPKPVNQVYTVQISTKSGDWKSKCFYTTDTECDLTDEIVKVKQTYLARVFSYPAGNVESTGSAGEPLYENSPEFTPYLETNLGQPTIQSFEQVGTKVNVTVEDRTLVRRNNTFLSLRDVFGKDLIYTLYYWKSSSSGKKTAKTNTNEFLIDVDKGENYCFSVQAVIPSRTVNRKSTDSPVECMGQEKGEFREC
concentration at which plasma coagulated in 50 seconds [4]: 3000 pM

B2: H6-tTF220-cys-C′: tTF219 mutated to encode Ile-Cys after amino acid 219, (His)6 tag (protein)
chain: HHHHHHAMALVPRGSGTTNTVAAYNLTWKSTNFKTILEWEPKPVNQVYTVQISTKSGDWKSKCFYTTDTECDLTDEIVKDVKQTYLARVFSYPAGNVESTGSAGEPLYENSPEFTPYLETNLGQPTIQSFEQVGTKVNVTVEDERTLVRRNNTFLSLRDVFGKDLIYTLYYWKSSSSGKKTAKTNTNEFLIDVDKGENYCFSVQAVIPSRTVNRKSTDSPVECMGQEKGEFRE
concentration at which plasma coagulated in 50 seconds [4]: 500 pM

B3: tTF220-cys-C′: tTF with Ile-Cys after amino acid 219, without (His)6 tag (protein)
chain: GSGTTNTVAAYNLTWKSTNFKTILEWEPKPVNQVYTVQISTKSGDWKSKCFYTTDTECDLTDEIVKDVKQTYLARVFSYPAGNVESTGSAGEPLYENSPEFTPYLETNLGQPTIQSFEQVGTKVNVTVEDERTLVRRNNTFLSLRDVFGKDLIYTLYYWKSSSSGKKTAKTNTNEFLIDVDKGENYCFSVQAVIPSRTVNRKSTDSPVECMGQEKGEFREIC
concentration at which plasma coagulated in 50 seconds [4]: 500 pM

B4: tTF221-cys-C′: tTF with Ile-Phe-Cys after amino acid 219, without (His)6 tag (protein)
chain: GSGTTNTVAAYNLTWKSTNFKTILEWEPKPVNQVYTVQISTKSGDWKSKCFYTTDTECDLTDEIVKDVKQTYLARVFSYPAGNVESTGSAGEPLYENSPEFTPYLETNLGQPTIQSFEQVGTKVNVTVEDERTLVRRNNTFLSLRDVFGKDLIYTLYYWKSSSSGKKTAKTNTNEFLIDVDKGENYCFSVQAVIPSRTVNRKSTDSPVECMGQEKGEFREIFC
concentration at which plasma coagulated in 50 seconds [4]: 500 pM

B5: H6-tTF221-cys-C′ dimer: chemically conjugated disulfide dimer of H6-tTF221-cys-C′ (protein)
chain: HHHHHHAMALVPRGSGTTNTVAAYNLTWKSTNFKTILEWEPKPVNQVYTVQISTKSGDWKSKCFYTTDTECDLTDEIVKDVKQTYLARVFSYPAGNVESTGSAGEPLYENSPEFTPYLETNLGQPTIQSFEQVGTKVNVTVEDERTLVRRNNTFLSLRDVFGKDLIYTLYYWKSSSSGKKTAKTNTNEFLIDVDKGENYCFSVQAVIPSRTVNRKSTDSPVECMGQEKGEFRE
reduction of coagulation-inducing activity relative to monomer / tTF219 [4]: 4 fold

B6: IgG-H6—N′-cys-tTF219: one molecule of IgG linked via SMPT to one or two molecules of tTF (conjugate)
chain: HHHHHHAMALVPRGSCGTTNTVAAYNLTWKSTNFKTILEWEPKPVNQVYTVQISTKSGDWKSKCFYTTDTECDLTDEIVKDVKQTYLARVFSYPAGNVESTGSAGEPLYENSPEFTPYLETNLGQPTIQSFEQVGTKVNVTVEDERTLVRRNNTFLSLRDVFGKDLIYTLYYWKSSSSGKKTAKTNTNEFLIDVDKGENYCFSVQAVIPSRTVNRKSTDSPVECMGQEKGEFRE
modifications: left off: large carriers
reduction of coagulation-inducing activity relative to monomer / tTF219 [4]: 5 fold | concentration at which plasma coagulated in 50 seconds [4]: 5000 pM | Xa formation, less active than H6—N′-cys-tTF219 (factor X): 2 fold

B7: Fab′-H6—N′-cys-tTF219: Fab′-SS-tTF conjugate (conjugate)
chain: HHHHHHAMALVPRGSCGTTNTVAAYNLTWKSTNFKTILEWEPKPVNQVYTVQISTKSGDWKSKCFYTTDTECDLTDEIVKDVKQTYLARVFSYPAGNVESTGSAGEPLYENSPEFTPYLETNLGQPTIQSFEQVGTKVNVTVEDERTLVRRNNTFLSLRDVFGKDLIYTLYYWKSSSSGKKTAKTNTNEFLIDVDKGENYCFSVQAVIPSRTVNRKSTDSPVECMGQEKGEFRE
modifications: left off: another chain or arm of the molecule; large carriers
Xa formation relative to H6—N′-cys-tTF219 (factor X): as active as H6—N′-cys-tTF219 itself

B8: tTF219 (G164A): tTF219 with amino acid 164 (Gly) replaced by Ala (protein)
chain: GSGTTNTVAAYNLTWKSTNFKTILEWEPKPVNQVYTVQISTKSGDWKSKCFYTTDTECDLTDEIVKDVKQTYLARVFSYPAGNVESTGSAGEPLYENSPEFTPYLETNLGQPTIQSFEQVGTKVNVTVEDERTLVRRNNTFLSLRDVFGKDLIYTLYYWKSSSSAKKTAKTNTNEFLIDVDKGENYCFSVQAVIPSRTVNRKSTDSPVECMGQEKGEFRE
necrosis in tumor sections [5]: some necrosis | coagulation times versus tTF219 and Factor VIIa at the same concentrations [4]: only marginally slower coagulation times

B9: tTF219 (W158R) (protein)
chain: GSGTTNTVAAYNLTWKSTNFKTILEWEPKPVNQVYTVQISTKSGDWKSKCFYTTDTECDLTDEIVKDVKQTYLARVFSYPAGNVESTGSAGEPLYENSPEFTPYLETNLGQPTIQSFEQVGTKVNVTVEDERTLVRRNNTFLSLRDVFGKDLIYTLYYRKSSSSGKKTAKTNTNEFLIDVDKGENYCFSVQAVIPSRTVNRKSTDSPVECMGQEKGEFRE
coagulation times versus tTF219 and Factor VIIa at the same concentrations [4]: only marginally slower coagulation times

B10: Factor VIIa: recombinant human Factor VIIa (protein)
light: ANAFLEELRPGSLERECKEEQCSFEEAREIFKDAERTKLFWISYSDGDQCASSPCQNGGSCKDQLQSYICFCLPAFEGRNCETHKDDQLICVNENGGCEQYCSDHTGTKRSCRCHEGYSLLADGVSCTPTVEYPCGKIPILEKRNASKPQGR
heavy: IVGGKVCPKGECPWQVLLLVNGAQLCGGTLINTIWVVSAAHCFDKIKNWRNLIAVLGEHDLSEHDGDEQSRRVAQVIIPSTYVPGTTNHDIALLRLHQPVVLTDHVVPLCLPERTFSERTLAFVRFSLVSGWGQLLDRGATALELMVLNVPRLMTQDCLQQSRKVGDSPNITEYMFCAGYSDGSKDSCKGDSGGPHATHYRGTWYLTGIVSWGQGCATVGHFGVYTRVSQYIEWLQKLMRSEPRPGVLLRAPFP
necrosis in tumor sections [5]: some necrosis
